Source: ChEMBL document CHEMBL2074044, “Two distinct mechanisms for bilirubin glucuronide transport by rat bile canalicular membrane vesicles. Demonstration of defective ATP-dependent transport in rats (TR-) with inherited conjugated hyperbilirubinemia” (J Clin Invest, 1992)

Substrate: C=CC1=C(C)/C(=C/c2[nH]c(Cc3[nH]c(/C=C4\NC(=O)C(C)=C4C=C)c(C)c3CCC(=O)O[C@@H]3O[C@@H](C(=O)O)[C@H](O)[C@@H](O)[C@@H]3O)c(CCC(=O)O[C@@H]3O[C@H](C(=O)O)[C@H](O)[C@H](O)[C@@H]3O)c2C)NC1=O
Assay: TP_TRANSPORTER: uptake in bile canalicular membranes from Wistar rat
Format: functional, cell membranes, Bile canalicular membrane

B1: ATP-binding cassette sub-family C member 2 (Rattus norvegicus) (protein)
chain: MDKFCNSTFWDLSLLESPEADLPLCFEQTVLVWIPLGFLWLLAPWQLYSVYRSRTKRSSITKFYLAKQVFVVFLLILAAIDLSLALTEDTGQATVPPVRYTNPILYLCTWLLVLAVQHSRQWCVRKNSWFLSLFWILSVLCGVFQFQTLIRALLKDSKSNMAYSYLFFVSYGFQIVLLILTAFSGPSDSTQTPSVTASFLSSITFSWYDRTVLKGYKHPLTLEDVWDIDEGFKTRSVTSKFEAAMTKDLQKARQAFQRRLQKSQRKPEATLHGLNKKQSQSQDVLVLEEAKKKSEKTTKDYPKSWLIKSLFKTFHVVILKSFILKLIHDLLVFLNPQLLKLLIGFVKSSNSYVWFGYICAILMFAVTLIQSFCLQSYFQHCFVLGMCVRTTVMSSIYKKALTLSNLARKQYTIGETVNLMSVDSQKLMDATNYMQLVWSSVIQITLSIFFLWRELGPSILAGVGVMVLLIPVNGVLATKIRNIQVQNMKNKDKRLKIMNEILSGIKILKYFAWEPSFQEQVQGIRKKELKNLLRFGQLQSLLIFILQITPILVSVVTFSVYVLVDSANVLNAEKAFTSITLFNILRFPLSMLPMVTSSILQASVSVDRLERYLGGDDLDTSAIRRVSNFDKAVKFSEASFTWDPDLEATIQDVNLDIKPGQLVAVVGTVGSGKSSLVSAMLGEMENVHGHITIQGSTAYVPQQSWIQNGTIKDNILFGSEYNEKKYQQVLKACALLPDLEILPGGDMAEIGEKGINLSGGQKQRVSLARAAYQDADIYILDDPLSAVDAHVGKHIFNKVVGPNGLLAGKTRIFVTHGIHFLPQVDEIVVLGKGTILEKGSYRDLLDKKGVFARNWKTFMKHSGPEGEATVNNDSEAEDDDDGLIPTMEEIPEDAASLAMRRENSLRRTLSRSSRSSSRRGKSLKNSLKIKNVNVLKEKEKEVEGQKLIKKEFVETGKVKFSIYLKYLQAVGWWSILFIILFYGLNNVAFIGSNLWLSAWTSDSDNLNGTNNSSSHRDMRIGVFGALGLAQGICLLISTLWSIYACRNASKALHGQLLTNILRAPMRFFDTTPTGRIVNRFSGDISTVDDLLPQTLRSWMMCFFGIAGTLVMICMATPVFAIIIIPLSILYISVQVFYVATSRQLRRLDSVTKSPIYSHFSETVTGLPIIRAFEHQQRFLAWNEKQIDINQKCVFSWITSNRWLAIRLELVGNLVVFCSALLLVIYRKTLTGDVVGFVLSNALNITQTLNWLVRMTSEAETNIVAVERISEYINVENEAPWVTDKRPPADWPRHGEIQFNNYQVRYRPELDLVLKGITCNIKSGEKVGVVGRTGAGKSSLTNCLFRILESAGGQIIIDGIDVASIGLHDLRERLTIIPQDPILFSGSLRMNLDPFNKYSDEEVWRALELAHLRSFVSGLQLGLLSEVTEGGDNLSIGQRQLLCLGRAVLRKSKILVLDEATAAVDLETDSLIQTTIRKEFSQCTVITIAHRLHTIMDSDKIMVLDNGKIVEYGSPEELLSNRGSFYLMAKEAGIENVNHTEL
Q: With B1 as the protein, how does the Km read?
A: 71 µM
